According to paper PMC6765133 (Nucleic Acids Research, 2019):
Numbering of substitutions follows the chain as printed. Names and notes keep the numbering of the source.

B1: Deinococcus geothermalis DdrO (residues 12-140) (natural protein)
chain: MGSSHHHHHHSSGLVPRGSHMKLHERLRELRSERGLRLKDVAETAGISVPYLSDLERGRTNPSLETLQTLAGAYSITVHDLLEGVEFYGDSTEGALPKGLADLVADPLLGSQITPDWVRTLSRIELRGKRPRDKQDWYEIYLHLKRILG
B2: DG-DdrO R22A (natural protein)
chain: B1 chain with R31A
B3: DG-DdrO Y129A (natural protein)
chain: B1 chain with Y138A
B4: DG-DdrO Y132A (natural protein)
chain: B1 chain with Y141A

Target: the molecule itself
Assay: SEC

Stoichiometry N, 2:
B1
B2
B3
B4
